According to the DeepSol protein solubility set:

Assay: soluble on expression in E. coli; label from the status in PepcDB or PDB records

| Sequence | soluble on expression in E. coli |
| --- | --- |
| GPGSMSASNSCTVEEVRKEYAKLLDPQEPLDSRMRELYRLKEDCLKTVAGVTVILEAIDTTDSVLLQHELAYNAGQSGREEAVPELERILRTTSYDVVTRHEAAEALGAIGSPLALQVLETHSAPTTEPEASIRETCELALARIAMKETKGDAAVAPPSGCEFVSVDPSPAFSALYSSTDEPVPLTVEELEAVLLDTSGRTRLFRRYMAMFTLRNLATEAAVAALCRGLREDTISALFRHEVAFVLGQLERPSSQPALIAALKDEEEAPMVRHEAAEALGAIADPATLPVLESYATHHEPIVRDSCVVALEMHKYWAHFNSLAHQQQEA | soluble |
| MYEKTKWKIQKMMKKGVFSGASFCFIEGEKEESNCWGLAQVKPTKEQLTSAMLFDVASLTKVVGTTTVILQLVEEGKIILDQSLQTYYPSFQDSNITIRHLLTHTADLQGYIPNRDQLNAQELKDAYNHSFHAGKAIGKKVVYTDAGTILLGFMLEEMFQQSMIEILSERVLLPLGMNESTFLPKNPLNCVPTELHEQRGLIRGATHDPKAFVLREHAGNAGLFSNVYDLTKFVRMYLNRGSYHNHQFLKKETIDLLLVNQVPAADKPRSLGWDFKYDVATQRPLLFHTGYTGTFLLIDVQQQSALIFLSNRVHPEDHRNTYIEERDQLLATYLKEKSSVSDEMTSF | not soluble |
| MSRLLALLALAPLLAGAAETTAPKPPSAFTVEAQRRVEAELPFADRADFERADRGLIRRPERLLIRNPDGSVAWQLGGYDFLLDGKPRDSINPSLQRQALLNLKYGLFEVAEGIYQVRGFDLANITFIRGDSGWIVVDTLTTPATARAAYELVSRELGERPIRTVIYSHAHADHFGGVRGLVEPQQVASGAVQIIAPAGFMEAAIKENVLAGNAMMRRATYQYGTQLPKGPQGQVDMAIGKGLARGPLSLLAPTRLIEGEGEDLVLDGVPFTFQNTPGTESPAEMNIWLPRQKALLMAENVVGTLHNLYTLRGAEVRDALGWSKYINQALHRFGRQAEVMFAVHNWPRWGNAEIVEVLEKQRDLYGYLHDQTLHLANQGVTIGQVHNRLRLPPSLDQEWYDRGYHGSVSHNARAVLNRYLGYYDGNPATLDPLSPEDSAGRYVEYMGGAERLLEQARASYARGEYRWVVEVVNRLVFAEPDNRAARELQADALEQLGYQAENAGWRNSYLSAAYELRHGVPRDQPTMKAGSADALAAMDTGLLFDYLGVRLDAGAAEGKALSINLRLPDIGENYLLELKNSHLNNLRGVQSEDAGQTVSIDRADLNRLLLKEVSAVRLVFEGKLKSSGNPLLLGQLFGMLGDFDFWFDIVTPAAKSEG | soluble |
| MGSDKIHHHHHHMTDERIHILRDILLELHNGASPESVQDRFDATFTGVSAIEISLMEHELMNSDSGVTFEDVMELCDVHANLFKNAIKGVEVSDTEHPGHPVRVFKEENLALRAALIRIRRLLDTYESMEDEEMLAEMRKGLVRQMGLVGQFDIHYQRKEELFFPIMERYGHDSPPKVMWGVDDQIRELFQTALTTAKSLPEVSISSVKEAFEAFATEFESMIFKEESILLMILLESFTQDDWLQIAEESDAYGYAIIRPSEKWVPERQSFIEEKIAEEPVQLDTAEGQVQQVIDTPEGHFTITFTPKEKEAVLDRHSQQAFGNGYLSVEQANLILNHLPMEITFVNKEDIFQYYNDNTPADEMIFKRTPSQVGRNVELCHPPKYLDKVKTIMKGLREGSKDKYEMWFKSESRGKFVHITYAAVHDEDGEFQGVLEYVQDIQPYREIDTDYFRGLE | not soluble |
| MAHHHHHHMRRVRLSPPLLRFPGSLFPKKNLFSKAIPLAIQTCRLFVSYSEPSYYYYYYYHNSCMCEVIRSARDSAERMGFGEGWGVCGASTRRQHRVGLFSSGSSSEHLPCMKGWSGRKDVSLIYAYHTCLLHFLLLHTCV | not soluble |
| MGSDKIHHHHHHMYGLIVNKASGNGKGQRTWKKVEYELQIRNTPYLVRFTSGSGHATTIVKELLTEGVKTIIAVGGDGTINEVANGLVNHRVPLGIIPAGSGNDFARCLNIPMHYEKALHRIFENKQKKVDLLHLGQRHCLTVTGIGFDGKIAKTVNEAIYKNWFNQFGFGGLSYVLSMLEVLKDYRPTNIQITVDGKELFFSGVWLVAVANSPNYGGGIRICPEASYDDGLLNICVVHGMSKWQLLRLFPKAYKGKHVVMEQHVTLLTGKDVYVQSDTPVLVQSDGEPIMESPVRLQIKKGALSVV | not soluble |
| MSLDAVKMVKGKVAEIMQNDRLGGLDVLEAEFSKTWEFKNHNVAVYSIQGRRDHMEDRFEVLTDLANKTHPSIFGIFDGHGGETAAEYVKSRLPEALKQHLQDYEKDKENSVLSYQTILEQQILSIDREMLEKLTVSYDEAGTTCLIALLSDKDLTVANVGDSRGVLCDKDGNAIPLSHDHKPYQLKERKRIKRAGGFISFNGSWRVQGILAMSRSLGDYPLKNLNVVIPDPDILTFDLDKLQPEFMILASDGLWDAFSNEEAVRFIKERLDEPHFGAKSIVLQSFYRGCPDNITVMVVKFRNSSKTEEQEGHHHHHH | soluble |
| MTTLAIDIGGTKLAAALIDNNLRISQRRELPTPASKTPDALREALKALVEPLRAEARQVAIASTGIIQEGMLLALNPHNLGGLLHFPLVQTLEAIAGLPTLAVNDAQAAAWAEYHALPDDIRDMVFITVSTGVGGGVVCDGKLLTGKGGLAGHLGHTLADPHGPVCGCGRVGCVEAIASGRGMAAAARDDLAGCDAKTLFIRAGEGHQQARHLVSQSAQVIARMIADVKATTDCQCVVIGGSVGLAEGYLEQVRAFLMQEPAPYHVALSAARYRHDAGLLGAALLAQGDTL | not soluble |
| YKTPLLKALSAVGKAAVDVCRYFNPEVKKVVAYLGWEQEYFLVDEGLYAARPDLLLTGRTLMGHEASKNQQLEDHYFGAIPTRVAAFMKDLEIQALELGIPVKTRHNEVAPNQFELAPIFEECNLAVDHNMLLMSLMRKVARSHGFRLLLHEKPFKGVNGSGKHNNWSLGTDTGVLLMAPGKTAEDNLRFITFIVNTLMAVYHHNGLLKASIMSATNAHRLGANEAPPAIISSFLGKQLTQVLDHIEESGNDDLVSLAGKQGMKLDIPQIPELLIDNTDRNRTSPFAFTGNRFEFRAVGSEANCASAMIALNAAVAEQLARFKQDVDALIEKGEPKISAIIEIIRRYIKECKPVRFDGNGYSDEWKAEAAHRGLDCETSCPLIFDNYLKPASIAMFESTGVMTRKELEARNEVKWETYTKKIQIEARVLGDLAMNH | not soluble |
| MGSDKIHHHHHHMKKKNVIVFGGGTGLSVLLRGLKTFPVSITAIVTVADDGGSSGRLRKELDIPPPGDVRNVLVALSEVEPLLEQLFQHRFENGNGLSGHSLGNLLLAGMTSITGDFARGISEMSKVLNVRGKVLPASNRSIILHGEMEDGTIVTGESSIPKAGKKIKRVFLTPKDTKPLREGLEAIRKADVIVIGPGSLYTSVLPNLLVPGICEAIKQSTARKVYICNVMTQNGETDGYTASDHLQAIMDHCGVGIVDDILVHGEPISDTVKAKYAKEKAEPVIVDEHKLKALGVGTISDYFVLEQDDVLRHNASKVSEAILEGKPRTSSSIQ | not soluble |
| GPGSMLHIDFCIAADAQEALEESGKPNTATVAVPIILEKEVLKLLAPPVCSSDGGFEYDLNATRTLLGAKGATAAYIVVRTAPSTQYVVIYVSDTTSAKNRMLYSTGLSRVVEATPHAQKRTVRISSVSELLPSLFEAESKKVKEALMTESERHHAAIARMEVAPQPVALPGVAVQITTDADDGLSQFAGGAVEVATFKIEAGQLQLDKTVAQLNGNLDQVKSILTDADPRFVLLRYPSPKTQLAEAVMVYVCPPTCSPKIKIQYASSAAAFREQALRHKIQLAHKVETDTTATLADDVRSAFEPFPSADARKTHGRLSSCPPTSWAPKGHSMLI | soluble |
| MSLNSAAQAQSSDPVVIGCPAPLTGIVAADGIEFQRGIQMAADEINAVGGILGRPIELVFADTQSKGVDVVIQSAQRLIDRDNASALIAGYNLENGTALHDVAADAGVIAMHANTVAVHDEMVKSDPDRYWGTFQYDPPETLYGGGFLKFLKDIEDNGEFSRPNNKIAIITGPGIYSVNIANAIRDGAGEYGYDVSLFETVAIPVSDWGPTLAKLRADPPAVIVVTHFYPQDQALFMNQFMTDPTNSLVYLQYGASLAAFRDIAGDNSVGVTYATVLGTLQDEMGDAFAKAYKERYGDLSSTASGCQTYSALYAYSIAAALAGGPGAPYDDVQNKAVADRLRSLIFRGPVGTMRFHADTQSAWSYPTETNDPSLGMPHIFSQIFDKAEDGVLIAPAPYKKAGFKMPPWMKGEGHHHHHH | soluble |
| ANKMALLIDGPNMLRKEFNVDLDKVRDALEQFGDIVVGRVYLNQYASDKLIEAIANQGFEPRISAGDVDVEMAVEGTELIFNKNIDTIVYMTRDADFLPAIRKAKERGKQIIVVGAEPGFSTAIQNIADHVIRVEEDFE | not soluble |
